The results in this text go back to publication doi:10.1101/2025.09.23.678148 (bioRxiv, 2025).

The target of data set [1] is T1, IRF1 (mouse, UniProt P15314 1-329).
T1 sequence: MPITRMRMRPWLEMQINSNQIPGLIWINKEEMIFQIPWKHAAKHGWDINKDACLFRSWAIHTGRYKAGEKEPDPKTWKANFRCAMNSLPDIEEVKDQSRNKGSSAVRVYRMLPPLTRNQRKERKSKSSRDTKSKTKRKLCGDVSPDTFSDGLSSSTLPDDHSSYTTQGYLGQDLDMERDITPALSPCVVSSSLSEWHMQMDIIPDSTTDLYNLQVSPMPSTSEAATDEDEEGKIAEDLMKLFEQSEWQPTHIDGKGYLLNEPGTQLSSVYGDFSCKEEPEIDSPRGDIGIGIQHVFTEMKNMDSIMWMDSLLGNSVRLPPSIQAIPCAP
Kind of data set: EMSA.

The target of data set [2] is T2, IRF2 (mouse, UniProt P23906 1-349).
T2 sequence: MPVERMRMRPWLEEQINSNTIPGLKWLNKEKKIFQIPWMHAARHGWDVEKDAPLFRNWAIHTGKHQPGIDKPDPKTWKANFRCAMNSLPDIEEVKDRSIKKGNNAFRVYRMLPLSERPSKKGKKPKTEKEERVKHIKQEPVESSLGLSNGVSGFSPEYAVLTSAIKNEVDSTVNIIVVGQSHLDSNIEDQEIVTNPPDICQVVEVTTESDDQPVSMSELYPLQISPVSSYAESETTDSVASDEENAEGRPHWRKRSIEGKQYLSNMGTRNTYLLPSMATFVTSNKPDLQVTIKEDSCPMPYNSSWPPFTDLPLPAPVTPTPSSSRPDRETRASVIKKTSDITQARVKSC
The data set is described as follows: EMSA.

For data set [3], the target named is T3, IRF1;IRF2 (mouse;mouse, UniProt P15314;P23906 1-329;1-349, |).
T3 sequence 1: T1 sequence
T3 sequence 2: T2 sequence
The data set is described as follows: EMSA.

Data set [4] addresses IRF1;SPOP (mouse;mouse, UniProt P15314;Q6ZWS8 1-329;28-329, |). The data set is described as follows: EMSA.
Data set [5] deals with SPOP (mouse, UniProt Q6ZWS8 28-329). The data set is described as follows: EMSA.
Data set [6] deals with T4, recombinant full-length mouse IRF1 (mouse, UniProt P15314 1-329).
T4 sequence (looked up): T1 sequence
The data set is described as follows: native gel or EMSA.

B1: DNA with a single AAA core (dsDNA)
DNA 1: CAGTGAAAGTGCCCCTACCCAGCAC
DNA 2: GTGCTGGGTAGGGGCACTTTCACTG
As for B1, the binding result in data set [1] is listed as “no binding”.

B2: Gbp2 probe, GAAA core and 5'-flanking AA mutated (dsDNA)
DNA 1: CAGTGCCCGTGCCCCTACCCAGCAC
DNA 2: GTGCTGGGTAGGGGCACGGGCACTG
As to B2, the binding result in data set [2] and in data set [1] was “no binding” each time.

B3: Gbp2 promoter probe, single IRF motif (dsDNA)
DNA 1: CAGTGAAAGTGAAACTAAAAAGCAC
DNA 2: GTGCTTTTTAGTTTCACTTTCACTG
Take B3: the binding result in data set [3] is recorded as “binds”; in data set [4], “binds”; in data set [2], “binds”; in data set [1], “binds”; in data set [5], “no binding”.

B4: recombinant mouse SPOP (aa28-329) (domain or fragment, UniProt Q6ZWS8 28-329, looked up)
chain: KVVKFSYMWTINNFSFCREEMGEVIKSSTFSSGANDKLKWCLRVNPKGLDEESKDYLSLYLLLVSCPKSEVRAKFKFSILNAKGEETKAMESQRAYRFVQGKDWGFKKFIRRDFLLDEANGLLPDDKLTLFCEVSVVQDSVNISGQNTMNMVKVPECRLADELGGLWENSRFTDCCLCVAGQEFQAHKAILAARSPVFSAMFEHEMEESKKNRVEINDVEPEVFKEMMCFIYTGKAPNLDKMADDLLAAADKYALERLKVMCEDALCSNLSVENAAEILILADLHSADQLKTQAVDFINYHA
As for B4, the binding result in data set [6] is listed as “binds”.
